Where two headings read alike, the source gives them in different places.
What was measured:
[1] = biological target: T1, recombinant SARS-CoV-2 spike S1 RBD (R319-F541), C-terminal 6-His (SARS-CoV-2, UniProt P0DTC2 319-541); test: sandwich dipstick, detector Ab4-AuNP
[2] = biological target: T2, UK variant RBD (R319-F541 with N501Y), C-terminal 6-His (SARS-CoV-2, UniProt P0DTC2 319-541); test: sandwich dipstick, detector Ab4-AuNP
[3] = biological target: T3, SA variant RBD (R319-F541 with K417N, E484K, N501Y), C-terminal 6-His (SARS-CoV-2, UniProt P0DTC2 319-541); test: sandwich dipstick, detector Ab4-AuNP
[4] = biological target: T4, BR P.1 variant RBD (R319-F541 with K417T, E484K, N501Y), C-terminal 6-His (SARS-CoV-2, UniProt P0DTC2 319-541); test: sandwich dipstick, detector Ab4-AuNP
[5] = biological target: T1, recombinant SARS-CoV-2 spike S1 RBD …; test: sandwich dipstick, detector Ab5-AuNP
[6] = biological target: T2, UK variant RBD (R319-F541 with N501Y), …; test: sandwich dipstick, detector Ab5-AuNP
[7] = biological target: T3, SA variant RBD (R319-F541 with K417N, …); test: sandwich dipstick, detector Ab5-AuNP
[8] = biological target: T4, BR P.1 variant RBD (R319-F541 with …); test: sandwich dipstick, detector Ab5-AuNP
[9] = biological target: T1, recombinant SARS-CoV-2 spike S1 RBD …; test: lateral flow NC50, RBD-AuNP vs immobilised ACE2
[10] = biological target: T2, UK variant RBD (R319-F541 with N501Y), …; test: lateral flow NC50, RBD-AuNP vs immobilised ACE2
[11] = biological target: T3, SA variant RBD (R319-F541 with K417N, …); test: lateral flow NC50, RBD-AuNP vs immobilised ACE2
[12] = biological target: T4, BR P.1 variant RBD (R319-F541 with …); test: lateral flow NC50, RBD-AuNP vs immobilised ACE2
[13] = biological target: T1, recombinant SARS-CoV-2 spike S1 RBD …; test: lateral flow NC50, RBD-AuNP vs immobilised ACE2; remark: listed apart in the source
[14] = biological target: T2, UK variant RBD (R319-F541 with N501Y), …; test: lateral flow NC50, RBD-AuNP vs immobilised ACE2; remark: listed apart in the source
[15] = biological target: T3, SA variant RBD (R319-F541 with K417N, …); test: lateral flow NC50, RBD-AuNP vs immobilised ACE2; remark: listed apart in the source
[16] = biological target: T4, BR P.1 variant RBD (R319-F541 with …); test: lateral flow NC50, RBD-AuNP vs immobilised ACE2; remark: listed apart in the source
[17] = biological target: BR P.2 variant RBD (R319-F541 with E484K) (SARS-CoV-2, UniProt P0DTC2 319-541); test: lateral flow NC50, RBD-AuNP vs immobilised ACE2
[18] = biological target: K417E RBD (R319-F541 with K417E) (SARS-CoV-2, UniProt P0DTC2 319-541); test: lateral flow NC50, RBD-AuNP vs immobilised ACE2
[19] = biological target: T478K RBD (R319-F541 with T478K) (SARS-CoV-2, UniProt P0DTC2 319-541); test: lateral flow NC50, RBD-AuNP vs immobilised ACE2
[20] = biological target: T1, recombinant SARS-CoV-2 spike S1 RBD …; test: flow cytometry, blocking of binding to hACE-2 cells
[21] = biological target: T1, recombinant SARS-CoV-2 spike S1 RBD …; test: as above; remark: listed apart in the source
[22] = biological target: T4, BR P.1 variant RBD (R319-F541 with …); test: as above
[23] = biological target: T5, IN v2 variant RBD (R319-F541 with L452R, T478K) (SARS-CoV-2, UniProt P0DTC2 319-541); test: as above
[24] = biological target: rSARS2 RBD aa319-541, N439K, C-His (SARS-CoV-2, UniProt P0DTC2 319-541); test: as above
[25] = biological target: rSARS2-B.1.1.7 S aa16-1211 2x aa mut., C-His (SARS-CoV-2, UniProt P0DTC2 16-1211); test: as above
[26] = biological target: rSARS2-B.1.1.7 S aa16-1211 4x aa mut., C-His (SARS-CoV-2, UniProt P0DTC2 16-1211); test: as above
[27] = biological target: rSARS2-B.1.617.2 S aa16-1211 10+4x aa mut., C-His (SARS-CoV-2, UniProt P0DTC2 16-1211); test: as above
[28] = biological target: L452R RBD (R319-F541 with L452R) (SARS-CoV-2, UniProt P0DTC2 319-541); test: dipstick, adsorbed RBD spots, Ab 10 µg/mL, GAM-AuNP
[29] = biological target: IN v1 variant RBD (R319-F541 with L452R, E484Q) (SARS-CoV-2, UniProt P0DTC2 319-541); test: lateral flow assay: blocking of RBD-AuNP capture by ACE2
[30] = biological target: T5, IN v2 variant RBD (R319-F541 with …); test: as above

B1: 1035224 (antibody, V domains shown)
VH: EVQLQQSGAEFVRPGALVKLSCKASGFNIKDDYMHWVKQRPEQGLEWIGWIDPENGNSIYDPKFQGKASITADTSSNTAYLQLSSLTSEDTAVYYCARGEYFGSGSFAYWGQGTLVTVSA
VL: QIVLTQSPAIMSASPGEKVTISCSASSSVSYMYWYQQKPGSSPKPWIYRTSNLASGVPARFSGSGSGTSYSLTISSMEAEDAATYYCQQYHSYPYMYTFGGGTKLEIK
**Q.** What does the source list for B1?
**A.** detection sensitivity [1]: 0.01 µg/mL; detection sensitivity [2]: 0.01 µg/mL; detection sensitivity [3]: 0.01 µg/mL; detection sensitivity [4]: 0.01 µg/mL; detection sensitivity [5]: 0.001 µg/mL; detection sensitivity [6]: 0.001 µg/mL; detection sensitivity [7]: 0.001 µg/mL; detection sensitivity [8]: 0.001 µg/mL; IC50 [9]: 0.66 µg/mL; IC50 [10]: 2.72 µg/mL; IC50 [11]: 1.14 µg/mL; IC50 [12]: 1.11 µg/mL; IC50 [13]: 0.66 µg/mL; IC50 [14]: 2.72 µg/mL; IC50 [15]: 1.14 µg/mL; IC50 [16]: 1.11 µg/mL; IC50 [17]: 0.54 µg/mL; IC50 [18]: 0.38 µg/mL; IC50 [19]: 0.76 µg/mL; percent blocking [20]: 99.1%; percent blocking [21]: 99.1%; percent blocking [22]: 88%; percent blocking [23]: 0%; percent blocking [24]: 96.1%; percent blocking [25]: 33.9%; percent blocking [26]: 74.1%; percent blocking [27]: 0%; binding result [28]: no binding (tested: 10 µg/mL); binding result [29]: no binding (tested: 10 µg/mL); binding result [30]: no binding (tested: 10 µg/mL)
